The record followed here is patent US20140296500, “Methods and Compositions of Nucleic Acid Ligands for Detection of Clinical Analytes Related to Human Health” (OTC BIOTECHNOLOGIES, LLC, published 2014).

For series [1], the target named is T1, Recombinant human growth hormone (r-hGH) (Homo sapiens, UniProt P01241 P01241:27-217). Put plainly: ELONA; binds r-hGH better than natural hGH. Conditions: tags: >95% pure research grade; label: 5'-biotin. Here is the method:
FIGS. 16A-16D show four more examples of aptamers (from the SEQ ID NOs 325-526) that bind recombinant human growth hormone (“r-hGH”) better than the natural form of hGH or somatotropin to help discriminate the artificial form in potential drug or doping tests for atheletes and growth-challenged children. The ELISA-like assays were conducted with the named aptamers (SEQ ID NOs 348, 377, 379 and 388) instead of antibodies in each case and absorbances were red at 405 nm with an automated microplate reader after a 15 minute development time in the presence of ABTS substrate as is standard in the diagnostics industry.

Series [2] deals with Bovine serum albumin (BSA) (Bos taurus, UniProt P02769 P02769:25-607). Put plainly: FRET beacon; unexpected cross-reactivity with BSA. Particulars: label: 5'-TYE665, 3'-Iowa Black RQ.
The target of series [3] is T2, CTx 8-AA peptide (EKAHDGGR) (Homo sapiens, UniProt P02452 P02452:1207-1214).
T2 chain: EKAHDGGR
Nature of the series: FRET beacon specificity; no response with 8-AA segment. Particulars: label: 5'-TYE665, 3'-Iowa Black RQ.

Series [4] concerns the target T3, CTx peptide (C-telopeptide of human type I bone collagen, 26 AA …) (Homo sapiens, UniProt P02452 P02452:1193-1218). Put plainly: FRET beacon; LOD 1 ng/ml; 0.5 M NaCl, 10 mM Tris-HCl, 1 mM MgCl2, pH 7.5-7.6, RT. Conditions: label: 5'-TYE665, 3'-Iowa Black RQ. Here is the method: Generally, the aptamer beacons or competitive FRET-aptamer complexes are then diluted to a final concentration of 1-5 μg/ml in 1×BB and equally dispensed to polystyrene or methacrylate cuvettes in which 1 ml of unlabeled target at various concentrations in 1×BB, PBS or diluted blood, plasma, serum, saliva, aspirate or urine has been added already. Cuvettes are gently mixed for 15 to 20 minutes at RT prior to reading their fluorescence in the homogeneous beacon or competitive-displacement FRET assay formats using a spectrofluorometer having gratings to vary the excitation wavelength and emission scanning ability or a stationary, handheld or otherwise portable fluorometer having a more restricted or fixed excitation and emission optical filter set with a range of wavelengths for excitation and emission.
FIGS. 3A-3F show how each of the aptamer beacons derived and defined from FIG. 2 behaved as a function of decreasing CTx peptide concentration (serial two-fold dilutions beginning with 100 micrograms per ml and ending with zero CTx peptide) in 1× binding buffer (1×BB; 0.5 M NaCl, 10 mM Tris-HCl, pH 7.5-7.6, 1 mM MgCl₂). In the figures “h” means hour or O'clock so that 2 h refers to the 2 O'clock loop from FIG. 2, while F means forward-primed and R means reverse-primed by reference to FIG. 2 as well. […]

Series [5] has as its target T1, Recombinant human growth hormone (r-hGH). Put plainly: ELONA; binds r-hGH better than natural hGH. Particulars: tags: >95% pure research grade; label: 5'-biotin. Here is the method: FIGS. 15A-15D show four examples of aptamers from the SEQ ID NOs 325-526 that bind recombinant human growth hormone (r-hGH; >95% pure research grade) better than the natural form of hGH or somatotropin in ELISA-like assays to help discriminate the artificial form of hGH in potential drug or doping tests for athletes, or to monitor serum levels of exogendus doses of r-hGH administered to children with growth deficits. The ELISA-like assays were conducted with the named aptamers (SEQ ID NOs 336, 338, 343 and 345) instead of antibodies in each case and absorbances were red at 405 nm with an automated microplate reader after a 15 minute development time in the presence of ABTS substrate as is standard in the diagnostics industry.
This is another data set of the same source.

For series [6], the target named is T3, CTx peptide (C-telopeptide of human …). Nature of the series: FRET beacon; almost as good as 15-base version, slightly higher background. Conditions: label: 5'-TYE665, 3'-Iowa Black RQ. Here is the method: Cuvettes are gently mixed for 15 to 20 minutes at RT prior to reading their fluorescence in the homogeneous beacon or competitive-displacement FRET assay formats using a spectrofluorometer having gratings to vary the excitation wavelength and emission scanning ability or a stationary, handheld or otherwise portable fluorometer having a more restricted or fixed excitation and emission optical filter set with a range of wavelengths for excitation and emission.
FIGS. 3A-3F show how each of the aptamer beacons derived and defined from FIG. 2 behaved as a function of decreasing CTx peptide concentration (serial two-fold dilutions beginning with 100 micrograms per ml and ending with zero CTx peptide) in 1× binding buffer (1×BB; 0.5 M NaCl, 10 mM Tris-HCl, pH 7.5-7.6, 1 mM MgCl₂). In the figures “h” means hour or O'clock so that 2 h refers to the 2 O'clock loop from FIG. 2, while F means forward-primed and R means reverse-primed by reference to FIG. 2 as well. […] The CTx 2R-2h loop was optimal for FRET-based detection because it gives the greatest spread or separation for various two-fold serial dilutions of the 26-AA CTx peptide beginning at 100 μg/ml. The CTx 2F-10 h loop was also noteworthy, but could not discriminate many of the different CTx concentrations. […]

T1 sequence (P01241 27-217, one chain of several): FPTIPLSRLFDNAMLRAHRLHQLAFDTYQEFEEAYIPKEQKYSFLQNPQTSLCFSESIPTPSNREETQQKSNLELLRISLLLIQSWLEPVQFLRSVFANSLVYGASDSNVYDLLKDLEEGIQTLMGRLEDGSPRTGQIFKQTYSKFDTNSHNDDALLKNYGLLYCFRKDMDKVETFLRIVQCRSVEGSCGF
T3 sequence (P02452 1193-1218, one chain of several): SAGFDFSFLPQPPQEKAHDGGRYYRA
Chain of Bovine serum albumin (BSA) (P02769 25-607, one chain of several): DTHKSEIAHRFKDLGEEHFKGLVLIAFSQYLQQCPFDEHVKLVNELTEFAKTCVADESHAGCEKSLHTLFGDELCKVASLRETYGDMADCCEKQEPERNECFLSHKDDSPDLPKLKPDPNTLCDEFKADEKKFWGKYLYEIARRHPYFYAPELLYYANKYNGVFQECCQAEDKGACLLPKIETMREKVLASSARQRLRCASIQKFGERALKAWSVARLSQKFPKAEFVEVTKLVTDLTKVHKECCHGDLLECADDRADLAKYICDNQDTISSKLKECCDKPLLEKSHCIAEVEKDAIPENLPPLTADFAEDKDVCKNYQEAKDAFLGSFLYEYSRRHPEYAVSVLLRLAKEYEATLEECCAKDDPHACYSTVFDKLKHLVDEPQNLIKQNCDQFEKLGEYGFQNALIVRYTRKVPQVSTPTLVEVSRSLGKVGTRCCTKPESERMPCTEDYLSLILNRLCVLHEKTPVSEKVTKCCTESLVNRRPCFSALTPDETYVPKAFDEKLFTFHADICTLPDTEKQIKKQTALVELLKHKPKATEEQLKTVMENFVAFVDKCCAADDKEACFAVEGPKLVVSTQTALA

B1: hGH aptamer SEQ 348 (ssDNA)
DNA: ATCCGTCACACCTGCTCTAGGATTTTTGTTATGTCGGCCACGATGGGGACCCCGTGGTGTTGGCTCCCGTAT
On to B1, for which, in series [1], the binding result is on record as “binds”.

B2: hGH aptamer SEQ 377 (ssDNA)
DNA: ATACGGGAGCCAACACCACATGACGGGTGACTAAAAGACGAAATCTCCCAATTAAGAGCAGGTGTGACGGAT
Turning to B2, the binding result in series [1] is “binds”.

B3: hGH aptamer SEQ 388 (ssDNA)
DNA: ATCCGTCACACCTGCTCTAAAACATGGGCCCAATTAGGCGTGATCCAACCCGTCTGGTGTTGGCTCCCGTAT
For the molecule B3, the binding result in series [1] was “binds”.

For the molecule GGTGGTGTTGGCTCC (ssDNA) [CTx 2R-2h 15-base beacon], the binding result in series [2] was “binds”; in series [3], “no binding”; in series [4], “binds”.

B4: hGH aptamer SEQ 338 (ssDNA)
DNA: ATCCGTCACACCTGCTCTTGGGTGAATCAATTGTTCGTACTCCACGTGATTCTGTGGTGTTGGCTCCCGTAT
Consider B4, for which, in series [5], the binding result was “binds”.

GTGGTGTTGGCTC (ssDNA) [CTx 2R-2h 13-base beacon]: in series [6], the binding result is reported as “binds”.

B5: hGH aptamer SEQ 379 (ssDNA)
DNA: ATACGGGAGCCAACACCACCTGAGCGCCGGCAGCACTCACTATTTGTCCCCGCAAGAGCAGGTGTGACGGAT
B5: the binding result in series [1] is “binds”.

B6: hGH aptamer SEQ 343 (ssDNA)
DNA: ATACGGGAGCCAACACCATAAGCAGAGAACTACAAGACGATCCCATATTCCAAAGAGCAGGTGTGACGGAT
Take B6: the binding result in series [5] is reported as “binds”.

B7: hGH aptamer SEQ 336 (ssDNA)
DNA: ATCCGTCACACCTGCTCTGGGGTGTATCCTTTTATGGATCTGCGAGAATAAGTCTGGTGTTGGCTCCCGTAT
Regarding B7, the binding result in series [5] is “binds”.

B8: hGH aptamer SEQ 345 (ssDNA)
DNA: ATACGGGAGCCAACACCAGGTTGGCGTCAAAAGAAATAAGGGATATACATTAGAGAGCAGGTGTGACGGAT
For B8, the binding result in series [5] is listed as “binds”.
